The values that follow come from publication PMC7385642.

The target in assay [1] is YSD1_17, major capsid protein of phage YSD1 (in the virion) (phage YSD1). Put plainly: cryo-EM structure; single-particle icosahedral reconstruction of the head of purified YSD1 virions (assembled in infected bacteria), 3.8 Å.
The target of assay [2] is YSD1_22 delta-HP (residues 45-69 removed and replaced with a glycine) with C-terminal hexa-histidine tag (phage YSD1). Put plainly: SEC-MALS; in-line refractive index and multi-angle laser light scattering (DAWN HELEOS-II, Optilab T-rEX), 25 mM Tris pH 8.0, 200 mM NaCl. Background: SEC sorts molecules by how far they enter the pores of the column.
The target of assay [3] is YSD1_22, tail-tube protein of phage YSD1 (in the virion tail) (phage YSD1). In words: cryo-EM structure; helical reconstruction (C6 symmetry) of the tail tube of purified YSD1 virions (assembled in infected bacteria), 3.5 Å.
Assay [4] concerns the target YSD1_16, auxiliary protein of phage YSD1 (in the virion) (phage YSD1). In words: cryo-EM structure; single-particle icosahedral reconstruction of the head of purified YSD1 virions (assembled in infected bacteria), 3.8 Å.

Several values for one entry are separate records, joined by “and”; a condition that tells them apart may be missing. Equal entries are not always repeated.

On to “YSD1_17, major capsid protein of phage YSD1 (in the virion) (natural protein)”, for which, in assay [1], the stoichiometry N was 5 and 6.

The substance “YSD1_22 delta-HP (residues 45-69 removed and replaced with a glycine) with C-terminal hexa-histidine tag (natural protein)” yielded a stoichiometry N in assay [2] of 6.

In the case of “YSD1_22, tail-tube protein of phage YSD1 (in the virion tail) (natural protein)”, in assay [3], the stoichiometry N is 6.

“YSD1_16, auxiliary protein of phage YSD1 (in the virion) (natural protein)” displayed a stoichiometry N in assay [4] of 3.

As a reminder, the stoichiometry N is the number of molecules, sites or subunits per partner or assembly.
